| Kd (huNec4) | Kd (msNec4) | Binder |
| --- | --- | --- |
| 19 nM | 14 nM | NEC_M_46 (VHH) VHH: EVQLLESGGGLVQPGGSLRLSCAASGYTFSDYAMGWYRQAPGKERELVSSISGSGGSTRYADSVKGRFTISRDNSKNTLYLQMNSLKPEDTAVYYCAAVIRQPSTGFYEYWGQGTQVTVSS |
| 33 nM | 27 nM | NEC_M_44 (VHH) VHH: EVQLLESGGGLVQPGGSLRLSCAASGRTLSSYAMGWYRQAPGKERELVSSISGSGGSTRYADSVKGRFTISRDNSKNTLYLQMNSLKPEDTAVYYCAVYILELAPGAEYWGQGTQVTVSS |
| 122 nM | 47 nM | NEC_M_8 (VHH) VHH: EVQLLESGGGLVQPGGSLRLSCAASGFTFSSYAMGWYRQAPGKEREFVSSISGSGGLTRYADSVKGRFTISRDNSKNTLYLQMNSLKPEDTAVYYCAVTTGYQGGVYDYWGQGTQVTVSS |
| 302 nM | 38 nM | NEC_S_11 (VHH) VHH: EVQLLESGGGLVQPGGSLRLSCAASGLTSSGYAMGWYRQAPGKERELVSSISSSGGLTHYADSVKGRFTISRDNSKNTLYLQMNSLKPEDTAVYYCDADIAYTGADYWGQGTQVTVSS |
| 84 nM | 10 nM | NEC_S_31 (VHH) VHH: EVQLLESGGGLVQPGGSLRLSCAASGFTYSSYAMGWYRQAPGKERELVSSISGSGGSTRYADSVKGRFTISRDNSKNTLYLQMNSLKPEDTAVYYCAVAIGVGDYWGQGTQVTVSS |
| 81 nM | 28 nM | NEC_S_55 (VHH) VHH: EVQLLESGGGLVQPGGSLRLSCAASGFTLSSYAMGWYRQAPGKERELVSSISGSGGSTRYADSVKGRFTISRDNSKNTLYLQMNSLKPEDTAVYYCAAYIGGDYLGQGTQVTVSS |
| 10 nM | 11 nM | NEC_M_17 (VHH) VHH: EVQLLESGGGLVQPGGSLRLSCAASGFTYSGYAMGWYRQAPGKERELVSSISGSGTLTSYADSVKGRFTISRDNSKNTLYLQMNSLKPEDTAVYYCDVDIPVGDATTVGDYWGQGTQVTVSS |
| 28 nM | 8060 nM | NEC_M_5 (VHH) VHH: EVQLLESGGGLVQPGGSLRLSCAASGLSFSSYSMGWYRQAPGKEREFVSAISGSSGSTNYADSVKGRFTISRDNSKNTLYLQMNSLKPEDTAVYYCAAEHRVTTSGVFYDYWGQGTQVTVSS |

From patent publication US20260199463A1 (published 2026)
